The target in this data set is T. aurantiacus GH61A polypeptide (Thermoascus aurantiacus, UniProt G3XAP7, N13Y). Put plainly: Phosphoric acid swollen cellulose (PASC) conversion assay (Examples 20, 21). As to conditions: 72 hours, 50° C. The format is biochemical. As for the experimental part: A 1.0% PASC slurry was prepared as described in Example 17. Ten ml of the 1.0% PASC slurry, 10 ml of H2O, and […] of dioxy compound were thoroughly mixed by shaking,
Five hundred μl aliquots of the 0.50% phosphoric acid swollen cellulose/0.05% dioxy compound slurry were pipetted into wells of a 2.0 ml 96-deepwell plate (Axygen, Union City, Calif., USA) using a 1000 μl micropipette with a wide aperture tip (end of tip cut off about 2 mm from the base). One hundred μl of 10 mM MnSO4-500 mM sodium acetate pH 5 were then added to each well. Two hundred μl of deionized water were added to each well. Enzyme mixtures were prepared and then added simultaneously to all wells in a volume of 200 μl, for a total of 1 ml in each reaction. […] All experiments reported were performed in triplicate.
Primary analysis of the hydrolysis reactions was performed using an AGILENT® 1100 HPLC with CHEMSTATION® software equipped with an AMINEX™ HPX-87H column. After approximately 4 days, the deep-well plate was removed from the incubator and chilled overnight to 4° C. The plate was then mixed well by inversion and briefly centrifuged 52×g in a SORVALL® RT7 centrifuge for 10 seconds. Samples were then mixed by pipetting, and 200 μl from each well were transferred to a MULTISCREEN® HV centrifuge filter plate assembly. The centrifuge filter plate assembly was centrifuged at 2000 rpm in a SORVALL® RT7 centrifuge for 20 minutes. […] Sugars were detected using a refractive index detector with quantification by integration compared to purified sugar standards.
All HPLC data processing was performed using MICROSOFT EXCEL™ software. […] In this assay only glucose was measured since beta-glucosidase was at high levels in all samples but the controls. Percent conversion was calculated using Equation 1. Triplicate data points were averaged and standard deviation was calculated.
The PASC assay was performed as described in Example 20.
Data were collected and analyzed, as described in Example 20, after 72 hours of incubation at 50° C.

B1: T. aurantiacus GH61A polypeptide: GH61A polypeptide having cellulolytic enhancing activity (SEQ ID NO: 14), recombinantly produced in Aspergillus oryzae JaL250 (protein, listed as Thermoascus aurantiacus)
chain: MSFSKIIATAGVLASASLVAGHGFVQNIVIDGKYYGGYLVNQYPYMSNPPEVIAWSTTATDLGFVDGTGYQTPDIICHRGAKPGALTAPVSPGGTVELQWTPWPDSHHGPVINYLAPCNGDCSTVDKTQLEFFKIAESGLINDDNPPGIWASDNLIAANNSWTVTIPTTIAPGNYVLRHEIIALHSAQNQDGAQNYPQCINLQVTGGGSDNPAGTLGTALYHDTDPGILINIYQKLSSYIIPGPPLYTG
B1: the “conversion of phosphoric acid swollen cellulose” value (T. aurantiacus GH61A polypeptide (20 mg/g) + A. oryzae CEL3A beta-glucosidase (20 mg/g), no dioxy compound) stood at 2.3±0.6%. For the same molecule, the “conversion of PASC” value (T. aurantiacus GH61A polypeptide (20 mg/g) alone) is reported as 1.5±1.1%.

The record behind these values is patent publication US9394555B2, “Compositions comprising a polypeptide having cellulolytic enhancing activity and a dioxy compound and uses thereof” (priority 2010, dated 2016).
